Article PMC3112360

Legend:
[1] = biological target: homocysteinylated fibronectin (human (endogenous in primary human dermal fibroblasts)) (UniProt P02751); assay: ELISA
[2] = biological target: homocysteinylated FN40K fragment (human) (UniProt P02751); assay: ELISA
homocysteinylated FN40K fragment (human), sequence (P02751 32-2477): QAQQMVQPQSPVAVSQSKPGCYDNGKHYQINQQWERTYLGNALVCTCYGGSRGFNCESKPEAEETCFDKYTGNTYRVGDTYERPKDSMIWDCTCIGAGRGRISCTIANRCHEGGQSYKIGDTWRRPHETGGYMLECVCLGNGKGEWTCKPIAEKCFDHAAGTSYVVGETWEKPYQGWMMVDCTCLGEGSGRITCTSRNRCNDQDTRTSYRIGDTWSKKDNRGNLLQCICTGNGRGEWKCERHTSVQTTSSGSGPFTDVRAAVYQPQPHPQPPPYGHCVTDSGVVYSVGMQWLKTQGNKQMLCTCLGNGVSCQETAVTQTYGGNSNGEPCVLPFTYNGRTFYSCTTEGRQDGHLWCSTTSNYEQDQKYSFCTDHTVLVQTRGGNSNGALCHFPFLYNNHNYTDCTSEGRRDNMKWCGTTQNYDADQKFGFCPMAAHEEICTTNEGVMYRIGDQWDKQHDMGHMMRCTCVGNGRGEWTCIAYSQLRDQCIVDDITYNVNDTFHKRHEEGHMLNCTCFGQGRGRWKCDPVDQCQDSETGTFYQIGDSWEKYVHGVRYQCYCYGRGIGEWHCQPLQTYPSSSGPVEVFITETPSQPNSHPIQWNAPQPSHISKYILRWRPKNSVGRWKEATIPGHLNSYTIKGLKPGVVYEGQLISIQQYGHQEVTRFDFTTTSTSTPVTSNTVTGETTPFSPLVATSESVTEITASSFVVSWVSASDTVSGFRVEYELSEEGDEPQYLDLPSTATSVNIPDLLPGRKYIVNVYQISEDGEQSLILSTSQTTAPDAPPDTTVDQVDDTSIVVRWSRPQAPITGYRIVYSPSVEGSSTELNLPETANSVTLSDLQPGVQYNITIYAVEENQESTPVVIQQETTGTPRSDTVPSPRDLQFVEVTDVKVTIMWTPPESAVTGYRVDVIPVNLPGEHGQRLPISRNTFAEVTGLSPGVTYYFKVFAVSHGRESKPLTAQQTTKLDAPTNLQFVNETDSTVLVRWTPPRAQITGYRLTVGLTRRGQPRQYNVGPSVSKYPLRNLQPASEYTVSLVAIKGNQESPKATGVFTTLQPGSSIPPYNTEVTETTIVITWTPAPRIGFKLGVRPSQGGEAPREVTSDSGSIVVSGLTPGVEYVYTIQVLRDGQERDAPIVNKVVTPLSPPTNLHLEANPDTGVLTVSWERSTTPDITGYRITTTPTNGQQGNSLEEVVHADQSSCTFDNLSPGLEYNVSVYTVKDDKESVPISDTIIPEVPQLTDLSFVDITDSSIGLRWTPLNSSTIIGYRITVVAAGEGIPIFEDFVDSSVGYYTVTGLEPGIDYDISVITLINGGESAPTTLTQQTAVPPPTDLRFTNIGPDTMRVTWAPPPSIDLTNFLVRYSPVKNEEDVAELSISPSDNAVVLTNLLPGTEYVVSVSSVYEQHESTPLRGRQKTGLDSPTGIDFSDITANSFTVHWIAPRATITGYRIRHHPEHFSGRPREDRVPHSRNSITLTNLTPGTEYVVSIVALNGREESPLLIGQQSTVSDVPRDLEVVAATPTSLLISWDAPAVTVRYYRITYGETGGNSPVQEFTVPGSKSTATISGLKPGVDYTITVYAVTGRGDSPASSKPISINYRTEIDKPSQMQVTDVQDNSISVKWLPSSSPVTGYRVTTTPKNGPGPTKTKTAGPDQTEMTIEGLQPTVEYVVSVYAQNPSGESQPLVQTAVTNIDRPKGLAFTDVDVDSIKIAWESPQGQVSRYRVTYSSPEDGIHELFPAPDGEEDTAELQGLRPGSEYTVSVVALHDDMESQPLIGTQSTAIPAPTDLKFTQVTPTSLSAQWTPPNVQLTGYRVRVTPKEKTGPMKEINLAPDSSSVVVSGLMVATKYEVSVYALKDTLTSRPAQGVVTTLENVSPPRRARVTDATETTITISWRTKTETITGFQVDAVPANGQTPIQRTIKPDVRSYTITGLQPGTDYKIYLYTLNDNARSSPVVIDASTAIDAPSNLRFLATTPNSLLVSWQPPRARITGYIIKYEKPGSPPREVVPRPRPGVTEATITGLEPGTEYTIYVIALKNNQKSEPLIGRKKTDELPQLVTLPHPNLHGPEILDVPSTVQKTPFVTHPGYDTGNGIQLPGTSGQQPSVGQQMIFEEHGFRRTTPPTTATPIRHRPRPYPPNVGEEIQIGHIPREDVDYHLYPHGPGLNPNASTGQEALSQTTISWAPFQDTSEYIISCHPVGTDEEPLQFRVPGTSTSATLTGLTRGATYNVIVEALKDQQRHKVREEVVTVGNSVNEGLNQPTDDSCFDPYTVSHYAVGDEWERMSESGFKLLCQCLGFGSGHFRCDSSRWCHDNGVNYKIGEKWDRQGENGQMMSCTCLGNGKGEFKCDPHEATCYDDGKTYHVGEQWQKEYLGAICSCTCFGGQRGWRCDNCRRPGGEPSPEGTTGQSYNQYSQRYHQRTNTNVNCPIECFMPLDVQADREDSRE

homocysteinylated fibronectin (human (endogenous in primary human dermal fibroblasts)), sequence (P02751 32-2477): as above

relative reduction in binding against the non-modified control [1]: 65% | relative reduction in binding against the non-modified control [2]: 34.1%
Substance: recombinant C-terminal half of fibrillin-1 (rFBN1-C) (from UniProt P35555 45-2731) (domain or fragment)
